The DeepSol protein solubility set

Experiment: soluble on expression in E. coli; label from the status in PepcDB or PDB records
For “MAKKNNKTKIQKPEAALQTDVAQITATGRVIAEHPSNFITPQKMRALFEDAESGDIRAQHELFADIEERDSDIAANMGTRKRALLTLNWRVAPPRNATPEEEKLSDQAYEMMDSLPTLEDLIMDLMDAVGHGFSALEVEWVFSDGLYLPRNFIHRPQSWFKWDKDNGLLLRTRENPEGEALWPLGWVVHTQKSRSVQQARNGLFRTLSWLYMFKHYAVHDFAEFLELYGMPIRIGKYGAGATKEEKNTLLRAVAEIGHNAAGIMPEGMEIELHNAANGTTATSNPFLQMADWCEKSAARLILGQTLTSGADGKSSTNALGNIHNEVRRDLLVSDAKQVAQTITSQIIGPFLQINYPHADPNRVPKFEFDTREPKDIAVFADAIPKLVDVGVQIPESWVRDKLVIPDVQEGEAVLVRQVPDNPVNRTALAALSAHTVPSKATGRHQEILDGALDDALVEPDFNSQLNPMVRQAVAALNACNSYEEADAALNALYPNLDNAKLRTYMQQALFISDILGQDHA”, the “soluble on expression in E. coli” value was “soluble”. In the case of “MAKQRVFIAGHRGMVGSAIRRQLEQRGDVELVLRTRDELNLLDSRAVHDFFASERIDQVYLAAAKVGGIVANNTYPADFIYQNMMIESNIIHAAHQNDVNKLLFLGSSCIYPKLAKQPMAESELLQGTLEPTNEPYAIAKIAGIKLCESYNRQYGRDYRSVMPTNLYGPHDNFHPSNSHVIPALLRRFHEATAQKAPDVVVWGSGTPMREFLHVDDMAAASIHVMELAHEVWLENTQPMLSHINVGTGVDCTIRELAQTIAKVVGYKGRVVFDASKPDGTPRKLLDVTRLHQLGWYHEISLEAGLASTYQWFLENQDRFRG”, the “soluble on expression in E. coli” value is reported as “soluble”. For “MAKRYVGSCTTVLVGKKASIDGSTIIARNEDGESPLHPQKFVYVKPEDQPRHYQSVLSKFAIDLPADPLGYTATPEAEDGHGIWAAAGINSENIAMTSTETITTNSRVLGVDPLVAAGIGEEDMPTIVLPYIHSARDGVQRLGSLLEQYGTYESNGIAFADKDEVWYFESIGGHHWAAIRIPDDAYVVAPNRFNITDFDFASDDTMSSADLRDLIETYHLNPDTEGYNLRHIFGSATIKDTRYNNPRTWYGQKYFNPEFNTTPIDQDLPFICRTSKKISIEDVKFVESSHYENTPYDVYGTTGTPAQKKLYRPIGINRNQELHILQIRNNVPAAVAGIHWLAFGPNTFNAVVPFYANVNDTPAAYRETGDKFDVTKMYWLSNLLATFGDYDFSLFKDQEDVFEQKTVAACRHLQLTTDEAVKDAKDIGDHLTAANEQMATIAMANSNELLGQMVAAAAPKMKLQFTLHDLEHHHHHH”, the “soluble on expression in E. coli” value was “not soluble”. In the case of “MAKSYDYQSAFDIIGPVMMGPSSSHTAGAVKIGNSARAVLGDMPKHIEIRYYESFAKTHQGHGTDVAIVGGAMGYSTFDSRIKSSLDIAKDENITIDIIEDEGESIGQHPNCAYIKANTKDGRYIEVIGISIGGGTIKLKGINVNGLNVELNHGLPMLVIDGNMNKAKINHLINDLSDMDLDLGEELIETNDNEGLVVFPLNKAISESALNIIKDKHSDLNVSYIK”, the “soluble on expression in E. coli” value is reported as “not soluble”. In the case of “MAKTLYEKLFDAHVVYEAQNETPLLYIDRHLVHEVTSPQAFDGLRAHGRQVRQPGKTFATMDHNVSTQTKDINASGEMARIQMQELIKNCKEFGVELYDLNHPYQGIVHVMGPEQGVTLPGMTIVCGDS”, the “soluble on expression in E. coli” value is reported as “not soluble”. In the case of “MAKVLCVLYDDPVDGYPKTYARDDLPKIDHYPGGQTLPTPKAIDFTPGQLLGSVSGELGLRKYLESNGHTLVVTSDKDGPDSVFERELVDADVVISQPFWPAYLTPERIAKAKNLKLALTAGIGSDHVDLQSAIDRNVTVAEVTYCNSISVAEHVVMMILSLVRNYLPSHEWARKGGWNIADCVSHAYDLEAMHVGTVAAGRIGLAVLRRLAPFDVHLHYTDRHRLPESVEKELNLTWHATREDMYPVCDVVTLNCPLHPETEHMINDETLKLFKRGAYIVNTARGKLCDRDAVARALESGRLAGYAGDVWFPQPAPKDHPWRTMPYNGMTPHISGTTLTAQARYAAGTREILECFFEGRPIRDEYLIVQGGALAGTGAHSYSKGNATGGSEEAAKFKKAV”, the “soluble on expression in E. coli” value is reported as “soluble”.
